Experimental data taken from patent US20180171001A1.
Positions count from the first letter of the chain named.

B1: γ3κ18 (antibody, V domains shown)
VH: QIHLVQSGTEVKKPGSSVTVSCKAYGVNTFGLYAVSWVRQAPGQRLEYIGQIRRWKSSASHHFRGRVTVSAVDPTGSSPPISSLEIRDLTTDDTAVYFCTTTSTSDYWSGLHNERGTAFSSWGQGTLISVSA
VL: DIQMTQSPSTLSASVGDTVRISCRASQSITGGWLAWYHQRPGKAPRLLIYRGSRLLGGVPSRFSGSAAGADFTLTIANLQAEDFGTFYCQQYDTYPGTFGQGTKVEVKR
B2: γ4κ18 (antibody, V domains shown)
VH: QIHLVQSGTEVKKPGSSVTVSCKAYGVNTFGLYAVNWVRQAPGQSLEYIGQIWRWKSSASHHFRGRVIISAVDLTGSSPPISPLEIKNLTSDDTAVYFCTTTSTSDRWSGLHHDGVMAFSSWGQGTLISVSA
VL: B1 VL
B3: γ20κ19 (antibody, V domains shown)
VH: B2 VH with T19A, H62D, P83S, T101A, S105P, R107Y
VL: B1 VL with A70T, D71G
B4: γ52κ18 (antibody, V domains shown)
VH: B2 VH with I68L, P83S, S105Y
VL: B1 VL
B5: γ23κ18 (antibody, V domains shown)
VH: B2 VH with P83S, R107Y
VL: B1 VL
B6: γ20κ18 (antibody, V domains shown)
VH: B2 VH with T19A, H62D, P83S, T101A, S105P, R107Y
VL: B1 VL
B7: γ15κ61 (antibody, V domains shown)
VH: B2 VH with P83S, T102A, S105Y, R107K
VL: B1 VL with V15I, G32N, L34V, S53A, R54A, A70T, A77G
B8: γ22κ18 (antibody, V domains shown)
VH: B2 VH with I68L, S77P, P83S, S105Y, R107K
VL: B1 VL
B9: γ59κ18 (antibody, V domains shown)
VH: B2 VH with S45G, I68L, P83S, L89V, S105Y, R107E, G110D
VL: B1 VL
B10: γ46κ18 (antibody, V domains shown)
VH: B2 VH with S45G, I68L, P83S, L89V, S105Y, R107K, M117V
VL: B1 VL

The binders below were run against Env of HIV-1 strain 231965.c1 (HIV-1) (assay: cell-based or functional assay).

Binder | neutralization IC50 [µg/mL]
B1 | 0.163
B2 | > 15
B3 | > 15
B4 | 0.284
B5 | 0.128
B6 | > 15
B7 | 5.23
B8 | 26
B9 | > 15
B10 | 4.16

What follows are binders tested against Env of HIV-1 strain X1254_c3 (HIV-1) (assay: cell-based or functional assay).

Binder | neutralization IC50 [µg/mL]
B1 | 0.616
B2 | 16.2
B3 | 2.99
B4 | 1.57
B5 | 0.545
B6 | 5.22
B7 | 10.9
B8 | 1.58
B9 | 4.07
B10 | 4.2

These binders were tested against Env of HIV-1 strain Du172.17 (HIV-1) (assay: cell-based or functional assay).

Binder | neutralization IC50 [µg/mL]
B1 | 11.5
B2 | > 15
B3 | > 15
B4 | > 15
B5 | 2.95
B6 | > 15
B7 | > 15
B8 | > 15
B9 | > 15
B10 | > 15

The binders below were run against Env of HIV-1 strain 3016.v5.c45 (HIV-1) (assay: cell-based or functional assay).

Binder | neutralization IC50 [µg/mL]
B1 | 0.057
B2 | > 15
B3 | > 15
B4 | 0.129
B5 | 0.047
B6 | > 15
B7 | 1.21
B8 | 13.3
B9 | > 15
B10 | 2.99

The binders below were run against Env of HIV-1 strain 3365.v2.c20 (HIV-1) (assay: cell-based or functional assay).

Binder | neutralization IC50 [µg/mL]
B1 | > 15
B2 | > 15
B3 | > 15
B4 | > 15
B5 | > 15
B6 | > 15
B7 | > 15
B8 | > 15
B9 | > 15
B10 | > 15

The binders below were run against Env of HIV-1 strain H086.8 (HIV-1) (assay: cell-based or functional assay).

Binder | neutralization IC50 [µg/mL]
B1 | 0.209
B2 | > 15
B3 | > 15
B4 | 0.464
B5 | > 15
B6 | > 15
B7 | > 15
B8 | > 15
B9 | > 15
B10 | > 15

Each binder was assayed against Env of HIV-1 strain YU2.DG (HIV-1) (assay: cell-based or functional assay).

Binder | neutralization IC50 [µg/mL]
B1 | 0.07
B2 | > 15
B3 | > 15
B4 | 0.265
B5 | 0.117
B6 | > 15
B7 | 3.44
B8 | 8.23
B9 | 7.71
B10 | 2.36

The binders below were run against Env of HIV-1 strain PVO.4 (HIV-1) (assay: cell-based or functional assay).

Binder | neutralization IC50 [µg/mL]
B1 | 0.028
B2 | > 15
B3 | > 15
B4 | 0.081
B5 | 0.047
B6 | > 15
B7 | 1.23
B8 | > 15
B9 | > 15
B10 | 2.1

These binders were tested against Env of HIV-1 strain 3415.v1.c1 (HIV-1) (assay: cell-based or functional assay).

Binder | neutralization IC50 [µg/mL]
B1 | > 15
B2 | > 15
B3 | > 15
B4 | > 15
B5 | > 15
B6 | > 15
B7 | > 15
B8 | > 15
B9 | > 15
B10 | > 15

These binders were tested against Env of HIV-1 strain 250-4 (HIV-1) (assay: cell-based or functional assay).

Binder | neutralization IC50 [µg/mL]
B1 | > 15
B2 | > 15
B3 | > 15
B4 | > 15
B5 | > 15
B6 | > 15
B7 | > 15
B8 | > 15
B9 | > 15
B10 | > 15

The binders below were run against Env of HIV-1 strain R1166.c1 (HIV-1) (assay: cell-based or functional assay).

Binder | neutralization IC50 [µg/mL]
B1 | 0.578
B2 | > 15
B3 | > 15
B4 | 1.35
B5 | 0.708
B6 | 20
B7 | 6.55
B8 | 7.31
B9 | 11.7
B10 | 4.1

These binders were tested against Env of HIV-1 strain ZM53M.PB12 (HIV-1) (assay: cell-based or functional assay).

Binder | neutralization IC50 [µg/mL]
B1 | > 15
B2 | > 15
B3 | > 15
B4 | > 15
B5 | > 15
B6 | > 15
B7 | > 15
B8 | > 15
B9 | > 15
B10 | > 15

The binders below were run against Env of HIV-1 strain 251-18 (HIV-1) (assay: cell-based or functional assay).

Binder | neutralization IC50 [µg/mL]
B1 | > 15
B2 | > 15
B3 | > 15
B4 | 0.116
B5 | 1.58
B6 | > 15
B7 | 4.66
B8 | > 15
B9 | 25
B10 | > 15

What follows are binders tested against Env of HIV-1 strain ZM109F.PB4 (HIV-1) (assay: cell-based or functional assay).

Binder | neutralization IC50 [µg/mL]
B1 | > 15
B2 | > 15
B3 | > 15
B4 | > 15
B5 | > 15
B6 | > 15
B7 | > 15
B8 | > 15
B9 | > 15
B10 | > 15

What follows are binders tested against Env of MuLV (assay: cell-based or functional assay).

Binder | neutralization IC50 [µg/mL]
B1 | > 30
B2 | > 30
B3 | > 15
B4 | > 15
B5 | > 30
B6 | > 30
B7 | > 15
B8 | > 30
B9 | > 15
B10 | > 15

The binders below were run against Env of HIV-1 strain REJO4541.67 (HIV-1) (assay: cell-based or functional assay).

Binder | neutralization IC50 [µg/mL]
B1 | 0.049
B2 | > 15
B3 | > 15
B4 | 2.13
B5 | 0.061
B6 | > 15
B7 | 2.03
B8 | > 15
B9 | 1.23
B10 | > 15
